Results: US20230030950A1 (UNIVERSITY OF QUEENSLAND, published 2023)

Target: T1, Aβ1-42 fibrils (UniProt P05067 672-713)
T1 construct: domain: Aβ1-42; Aggregated (fibrillar) form coated on the ELISA plate; also called fibrillar amyloid-β42; fibrillar Aβ42
Test: direct-binding ELISA; plate coated with Aβ1-42 fibrils, serial dilutions of antibody, anti-mouse HRP detection
Procedure: A131-42 fibrils were generated by incubating 0.1 mM A131-42 (JPT Peptide Technologies, Germany) in 10 mM HCl for 3 d at 37° C. A MaxiSorp ELISA plate was coated with […] Aβ₁₋₄₂ fibrils in 0.1M sodium bicarbonate buffer and then blocked with 1% bovine serum albumin.

T1 sequence (P05067 672-713 limits assumed): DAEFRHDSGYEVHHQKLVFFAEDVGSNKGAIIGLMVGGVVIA

EC50: 1.18 nM
B1: 6E10 antibody (antibody, V domains shown)
VH: EVQLQQSGAELVKPGASVKLCTASGFNIKDTYIHWVKQRPEQGLEWIGRFDPVNVNTRYDSRFRGKATITSDASSNTAYLHLNSLTSEDTAVYYCSRSYYNGRRRFTYWGQGTLVTVSA
VL: DIVMTQSPSSLTVTAGEKVALTCKASQSLLSSGNQKNYLTWYQQKPGQPPKLLIYWASIRESGVPDRFTGSGSGTFFTLTISSVQAEDLAVYYCQNDYNYPFTFGSGTKLEIK
